This note sets out measurements from patent US20140271646A1 (UNITED STATES OF AMERICA AS REPRESENTED BY THE SECRETARY …, published 2014).

The target of assay [1] is T1, human IGF-II (human, UniProt P01344 25-91).
T1 construct: mature; It was biotinylated for the flow cytometry assays; also called hIGF-II; insulin-like growth factor II
In words: phage library panned on hIGF-II, semELISA screening. The procedure:
The PCR products were gel-purified, digested with SfiI, and gel-purified again. The purified fragments were then cloned into pComb3X linearized by SfiI. A phage library was prepared by electroporation of Escherichia coli (E. coli) strain TG1 electroporation-competent cells (Stratagene, La Jolla, Calif.) with desalted and concentrated ligation, as described previously (Chen et al., 2008, J Mol Biol 382:779-89).

Assay [2] concerns the target T1, human IGF-II. In words: ELISA, eAd on hIGF-II. The procedure: (§1) ELISA was performed as described previously (Chen et al., 2008, supra). Bound Fabs and eAds were detected by HRP-conjugated mouse anti-FLAG tag antibody. The antibody-Fc fusion proteins binding to IGF-II directly coated on 96-well plates were detected by HRP-conjugated goat anti-human IgG (Fc-specific) antibody. […] The half-maximal binding (EC₅₀) was calculated by fitting the data to the Langmuir adsorption isotherm.
(In general: An ELISA detects its analyte on a solid surface through an enzyme-linked reagent.)

For the next assay, the target named is T2, mouse IGF-II (mouse, UniProt P09535 25-91).
T2 construct: also called mIGF-II
T2 sequence (P09535 25-91 limits assumed): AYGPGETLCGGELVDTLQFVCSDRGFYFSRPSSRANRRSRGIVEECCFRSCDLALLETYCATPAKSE
In words: ELISA-based competition assay.

For assay [3], the target named is T1, human IGF-II. Nature of the assay: ELISA, Fab on hIGF-II.
For assay [4], the target named is T1, human IGF-II. In words: ELISA on hIGF-II. The protocol:
as §1

Assay [5] addresses T1, human IGF-II. In words: SPR, Biacore X100, antibody amine-coupled to a CM5 chip, hIGF-II as analyte, monovalent binding model.
Experimental: ELISA was performed by coating IGF-II on 96-well plates. Bound antibodies were detected by HRP-conjugated goat anti-human IgG (Fc-specific) antibody. SPR analysis was performed on Biacore X100 by according to the manufacturer's instructions.
The binding kinetics of the antibodies was assessed by SPR analysis on Biacore X100 (GE Healthcare) according to the manufacturer's instructions. Briefly, antibodies were diluted in sodium acetate (pH 5.0) and immobilized directly onto a CM5 sensor chip with standard amine coupling method. The reference cell was injected with N-hydroxysuccinimide/1-ethyl-3-(3-dimethyaminopropy) carbodiimide and ethanolamine without injection of IGF-II. IGF-II was diluted with running buffer HBS-EP (100 mM HEPES, pH 7.4, 1.5 M NaCl, 30 mM EDTA, 0.5% surfactant 20). […] The kinetic constants were calculated from the sensorgrams fitted with the monovalent binding model of the BiacoreX100 Evaluation software 2.0.
Assay [6] concerns the target T1, human IGF-II. Nature of the assay: ELISA, hIGF-II coated on the plate. The procedure:
The half-maximal binding (EC₅₀) was calculated by fitting the data to the Langmuir adsorption isotherm.
as §1

T1 sequence (P01344 25-91): as the sequence (P09535 25-91 limits assumed) above, with G3R, G5S, S22G, S32A, A35V, N36S counted along it

B1: eAd m630.9 (VHH)
VHH: QVQLVQSGGGLVQPGGSLRLSCAASSFDFDYYEMSWVRQAPGQRLEWVAYISKSGGTKMYADSVKGRFTISRDNSKNTLYLQMNTLRAEDTAMYYCAKDRATCSGGRCYSFYYGMDVWGQGTLVTVSS
notes: Mutant of m630 selected from the random mutagenesis library panned on hIGF-II; not shown: C-terminal hexahistidine tag, and a FLAG tag used for detection
Turning to B1, the binding result in the assay with human IGF-II [1] is given as “binds”.

B2: eAd m630.1 (VHH)
VHH: QVQLVQSGGGLVQPGGSLRLSCAASSFDFDYYEMSWVRQAPGQRLEWVAYISKSGGTKMYADSVKGRFTISRDNSRNTLYLQMNTLRAEDTAMYYCAKDRATCRGGSCYSFYHGMDVWGQGTLVTVSS
notes: as for B1
For the molecule B2, the binding result with human IGF-II [1] is recorded as “binds”.

B3: eAd m630.3 (VHH)
VHH: QVQLVQSGGGLVQPGGSLRLSCAASSFDFDYYEMSWVRQAPGQRLEWVAYISKSGGTKMYADSVKGRFTISRDNSKNTLYLQMNTLRAEDTAMYYCAKDRATCRGGRCYSFYYGMDVWGQGTLVTVSS
notes: not shown: C-terminal hexahistidine tag, and a FLAG tag used for detection
Take B3: in the assay with human IGF-II [2], the concentration for a half-maximal effect (EC50) (as a rule, the concentration that produces a half-maximal response) came to 2 nM and the “fold lower EC50 than m630” value is 25 fold.

B4: eAd m630.4 (VHH)
VHH: QVQLVQSGGGLVQPGGSLRLSCAASSFDFGYYEMSWVRQAPGQRLEWVAYISKSGGTKMYADSVKGRFTISRDNSKNTLYLQMNTLRAEDTAMYYCAKDRATCSGGRCYSFYYGMDVWGQGTLVTVSS
notes: as for B1
Regarding B4, in the assay with human IGF-II [1], the binding result was “binds”.

B5: eAd m630 (VHH)
VHH: QVQLVQSGGGLVQPGGSLRLSCAASSFDFDYYEMSWVRQAPGQRLEWVAYISKSGGTKMYADSVKGRFTISRDNSKNTLYLQMNTLRAEDTAMYYCAKDRATCSGGSCYSFYYGMDVWGQGTLVTVSS
notes: Human engineered antibody domain (a single VH domain) expressed in E. coli HB2151; not shown: C-terminal hexahistidine tag, and a FLAG tag used for detection
Consider B5, for which a half-maximal effect in the assay with human IGF-II [2] (EC50) was put at 50 nM. Also, the binding result with mouse IGF-II is reported as “binds”.

B6: Fab m610.27 (Fab, V domains shown)
VH: QVQLVQSGAEVKKPGASVKVSCKASGYTFTSYYMHWVRQAPGQGLEWMGIINPSGGSTSYAQKFQGRVTMTRDTSTSTVYMELSRLRSDDTAVYYCARDVQWLAYGMDVWGQGTTVTVSS
VL: DIQMTQSPSSLSASVGDRVTITCRASQSISSYLNWYQQKPGRAPDLLINAASSLQSGVPSRFSGSGSGTDFTLTISSLQPEDFATYFCQQSYSLPFTFGGGTKVEIKG
notes: Human Fab expressed in E. coli HB2151; also called m610.27 in Fab format
The molecule B6 yielded a concentration giving a half-maximal response (EC50) in the assay with human IGF-II [3] of 5 nM.

B7: m610 (Fab, V domains shown)
VH: QVQLVQSGAEVKKPGASVKVSCKASGYTFTSYYMHWVRQAPGQGLEWMGIINPSGGSTSYAQKFQGRVTMTRDTSTSTVYMELSRLRSDDTAVYYCARDVQWLAYGMDVWGQGTTVTVSS
VL: not shown
notes: also called Fab m610
Regarding B7, the binding result in the assay with mouse IGF-II is on record as “binds”. Moreover, the EC50 in the assay with human IGF-II [4] turned out to be 20 nM.

B8: m660 (bispecific antibody, human IgG1, kappa)
heavy: not shown
light: QVQLVQSGGGLVQPGGSLRLSCAASSFDFDYYEMSWVRQAPGQRLEWVAYISKSGGTKMYADSVKGRFTISRDNSKNTLYLQMNTLRAEDTAMYYCAKDRATCRGGRCYSFYYGMDVWGQGTLVTVSSGGGGSGGGGSGGGGSRTVAAPSVFIFPPSDEQLKSGTASVVCLLNNFYPREAKVQWKVDNALQSGNSQESVTEQDSKDSTYSLSSTLTLSKADYEKHKVYACEVTHQGLSSPVTKSFNRGEC
notes: Produced in 293 free style cells; also called bispecific antibody m660
Take B8: in the assay with human IGF-II [5], binding was put at a Kd of 0.136 nM. The “fold lower EC50 than IgG1 m610.7” value with human IGF-II [6] was found to be 3 fold.
